The target in test [1] is 犬细小病毒 (canine parvovirus, whole virus) (犬细小病毒 (canine parvovirus)). The test can be described thus: cell-based or functional assay.
The target of test [2] is 犬细小病毒VLPs (canine parvovirus virus-like particles) (犬细小病毒 (canine parvovirus)). The test can be described thus: indirect ELISA, VLPs coated at 1μg/ml, hybridoma supernatant. For orientation: In an ELISA, binding on a coated surface is turned into a signal by an enzyme label.
For test [3] the target is unchanged. The test can be described thus: non-competitive indirect ELISA, CPV-VLPs coated at 1, 0.5, 0.25, 0.125 μg/ml; mean of 6 Ka values.

The results in this text go back to patent CN109627331A.

Values joined by “and” are separate entries in the source; they are usually repeats but may differ in a detail not shown here. Equal values may be shown once.

B1: 鼠源CPV基因工程抗体 (recombinant mouse anti-canine parvovirus antibody expressed in HEK-293 cells) (antibody, V domains shown)
VH: QVQLKQSGPGLVQPSQSLSITCTVSGFSLTSYGVHWVRHSPGKGLEWLGVIWSGGSTDYNAAFISRLSITKDNSKTQVFFKMNSLQANDTAIYYCARNSFYGSTPGSYAMDYWGQGTSVTVSS
VL: QIVLTQSPASLSMAIGEKVTIRCIASTDIDDDMNWYQQKPGKPPNLLISEGNTLRPGVPSRFSSSGYGTDFVFTIQNMLSEDVADYYCLQSDNLPLTFGAGTKLELK
Turning to B1, in test [1], the 中和效价 is 4 titre (1:x) and 8 titre (1:x); the 血凝抑制效价 was 8 titre (1:x).

B2: CPV单克隆抗体 (mouse anti-canine parvovirus monoclonal antibody from hybridoma supernatant) (antibody, V domains shown)
VH: B1 VH
VL: B1 VL
The molecule B2 had an OD450 in test [2] of 1.07 OD450. Further, the Ka in test [3] was 1.02e+11 M⁻¹.
